Experimental data published in patent publication US20150246971A1 (RESEARCH DEVELOPMENT FOUNDATION, published 2015).
Each block holds one binder with its values, some of them ahead of it.

Columns and labels:
[1] = target: T1, soluble human JAM-C-FLAG protein (human, UniProt Q9BX67 32-237); test: SPR (Biacore 2000), JAM-C FLAG on a CM5 chip, response at the end of injection
T1 construct: Amine-coupled to a Biacore CM5 chip; also called immobilized JAM-C; human soluble JAM-C FLAG protein
T1 sequence: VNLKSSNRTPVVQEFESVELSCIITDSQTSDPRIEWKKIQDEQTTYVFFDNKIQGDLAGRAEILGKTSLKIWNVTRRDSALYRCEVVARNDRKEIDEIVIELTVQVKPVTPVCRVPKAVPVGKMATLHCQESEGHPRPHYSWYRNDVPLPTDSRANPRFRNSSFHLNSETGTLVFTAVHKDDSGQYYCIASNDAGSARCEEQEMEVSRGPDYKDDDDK
Method: (§1) To confirm the specificity of the JAM-C/JAM-B interaction at the molecular level, soluble human JAM-C-FLAG protein was covalently immobilized to a Biacore CM5 sensor chip Immobilization was assessed by testing the binding of anti-JAM-C monoclonal and polyclonal antibodies. […] Homotypic JAM-C/JAM-C interaction was never observed under these conditions, even when injecting higher concentrations of JAM-C Fc. […] To validate these findings for the model of human cells injected into mice, the inventors subsequently confirmed that human JAM-C binds to murine JAM-B to the same extent as to human JAM-B (FIG. 6B).
(§2) Interaction studies were performed on a Biacore 2000 (GE Healthcare). Recombinant proteins were immobilized at a concentration of 5 μg/mL on a CM5 sensor chip using the amine coupling kit (NHS-EDC) provided by the Biacore supplier. Background signal from a reference channel without soluble JAM-C was automatically subtracted. Proteins (30 μL) were injected (Kinject) in running buffer (400 μM Tris-HCl pH 7.4, containing 145 mM NaCl) at a flow rate of 20 μL/min.

[2] = target: T2, human JAM-C (full-length, on cells) (human, UniProt Q9BX67 32-310); test: adhesion of CFSE-labelled JAM-C-transfected Raji cells to coated Fc protein (human and murine JAM-B Fc coated)
T2 construct: whole, on cells; also called HuJAM-C; junctional adhesion molecule C
T2 sequence (looked up): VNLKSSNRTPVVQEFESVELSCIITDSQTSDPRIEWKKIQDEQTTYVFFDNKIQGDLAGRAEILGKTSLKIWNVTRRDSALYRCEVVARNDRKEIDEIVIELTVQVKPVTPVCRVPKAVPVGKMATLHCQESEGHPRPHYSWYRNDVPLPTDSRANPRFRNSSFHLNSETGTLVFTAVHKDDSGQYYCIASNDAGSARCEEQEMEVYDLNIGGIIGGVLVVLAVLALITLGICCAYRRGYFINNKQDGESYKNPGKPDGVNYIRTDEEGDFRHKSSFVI
Method: (§3) Although homotypic JAM-C/JAM-C and heterotypic JAM-C/JAM-B interactions have been reported, the endothelial ligand for JAM-C on B cells had not been described. To investigate this interaction, adhesion assays were performed. Culture plates were coated with recombinant human and murine JAM-B Fc, human JAM-C Fc, human VCAM-1 Fc as a positive control, and JAM-A Fc as a negative control. The JAM-Cneg B cell line Raji was transfected with the full-length human JAM-C cDNA and mock-transfected cells were used as a control (FIG. 5A). Whereas mock-transfected Raji cells adhered only to VCAM-1, JAM-C transfected Raji cells adhered to JAM-B and VCAM-1, but adhered neither to JAM-C nor to JAM-A (FIG. 5B-C). […]
(§4) For cell adhesion assays, NUNC 269787 adhesion plates were successively coated with anti-huFc antibody (Jackson Immuno Research) at 2.5 μg/mL, Fc-labeled proteins at 2.5 μg/mL, and blocked with 1% BSA (purified fraction V, Sigma). […] One hundred microliters of lysed cells were transferred into a 96-well plate (micro-clear plates black, Greiner), and fluorescence (πex 485 nm; πem 538 nm) was measured with a Flex Station Microplate reader (Molecular Devices). Data were expressed either in arbitrary units or as the ratio of the fluorescence measured on JAM-B Fc coated wells to the fluorescence measured on wells coated with Fc control protein.

[3] = target: T2, human JAM-C (full-length, on cells); test: adhesion of CFSE-labelled JAM-C-transfected Raji cells to coated Fc protein
Method: as §3, §4

[4] = target: T1, soluble human JAM-C-FLAG protein; test: SPR (Biacore 2000), JAM-C FLAG on a CM5 chip
Method: as §1, §2

binding result [1]: binds
B1: murine JAM-B FLAG (ligand, UniProt Q9JI59 29-236, looked up)
chain: FSASKDHRQEVTVIEFQEAILACKTPKKTTSSRLEWKKVGQGVSLVYYQQALQGDFKDRAEMIDFNIRIKNVTRSDAGEYRCEVSAPTEQGQNLQEDKVMLEVLVAPAVPACEVPTSVMTGSVVELRCQDKEGNPAPEYIWFKDGTSLLGNPKGGTHNNSSYTMNTKSGILQFNMISKMDSGEYYCEARNSVGHRRCPGKRMQVDVLN
notes: also called murine JAM-B FLAG protein; not shown: FLAG tag

binding result [2]: binds
B2: recombinant murine JAM-B Fc (Fc fusion, UniProt Q9JI59 29-236, looked up)
chain: B1 chain
notes: Coated on adhesion plates; also called mouse JAM-B; not shown: Fc tag (captured by anti-huFc antibody)

binding result [3]: binds | binding result [4]: binds
B3: recombinant human JAM-B Fc (Fc fusion)
chain: FSAPKDQQVVTAVEYQEAILACKTPKKTVSSRLEWKKLGRSVSFVYYQQTLQGDFKNRAEMIDFNIRIKNVTRSDAGKYRCEVSAPSEQGQNLEEDTVTLEVLVAPAVPSCEVPSSALSGTVVELRCQDKEGNPAPEYTWFKDGIRLLENPRLGSQSTNSSYTMNTKTGTLQFNTVSKLDTGEYSCEARNSVGYRRCPGKRMQVDDLNIS
notes: Bought (R&D); also called soluble JAM-B Fc; soluble human JAM-B Fc; not shown: Fc tag (detected with anti-human IgG1 Fc)

binding result [4]: binds
B4: human JAM-B FLAG (ligand)
chain: B3 chain
notes: also called human JAM-B FLAG protein; not shown: FLAG tag
